Reference: patent US20160340412A1

Target: C3
Assay: analytical ultracentrifugation; self-association (dimer)

C3 gave a Kd of 188 µM.
